From patent US20230035659A1, “Compositions and Methods for TTR Gene Editing and Treating ATTR Amyloidosis Comprising a Corticosteroid or Use Thereof” (Intellia Therapeutics, Inc., priority 2019, published 2023)
Strand notation (5' to 3'): a small letter for the sugar, then the base; units joined by * are phosphorothioate-linked, units joined directly phosphodiester-linked; [ ] holds rarer units or linkages, { } end groups; capitals alone tell only the bases. m = 2'-O-methyl; r = 2'-OH (RNA)

Key:
[1] = tested on: potential off-target genomic sites; assay: Off-target analysis by oligo insertion based assay in primary human hepatocytes (sgRNAs); type: cell-based; settings: 100 ng Cas9 mRNA, 25 nM sgRNA, 12.5 nM donor oligo, 48 h
Method: Off-target analysis of sgRNAs targeting TTR was performed in primary human hepatocytes (PHH) as described in Example 5, with the following modifications. PHH were plated at a density of 33,000 cells per well on collagen-coated 96-well plates as described in Example 1. Twenty-four hours post plating, cells were washed with media and transfected using Lipofectamine RNAiMAX (ThermoFisher, Cat. 13778150) as described in Example 1. Cells were transfected with a lipoplex containing 100 ng Cas9 mRNA, immediately followed by the addition of another lipoplex containing 25 nM of the sgRNA and 12.5 nM of the donor oligo (0.3 μL/well). Cells were lysed 48 hours post-transfection and gDNA was extracted and analyzed as further described in Example 5. The data is graphically represented in FIG. 20.
Fewer sites were detected in PHH for every guide tested as compared to the HekCas9 cell line, with no unique sites detected in PHH alone.

TTR [2] = assay: TTR editing dose response (EC50, maximum editing) in primary cyno hepatocytes treated with LNP formulated U-depleted Spy Cas9 mRNA and sgRNAs; type: cell-based, cynomolgus monkey; settings: LNP formulated U-depleted Spy Cas9 mRNA and human specific sgRNAs
Method: (§1) Primary liver hepatocytes. Primary human liver hepatocytes (PHH) and primary cynomolgus liver hepatocytes (PCH) (Gibco) were cultured per the manufacturer's protocol (Invitrogen, protocol 11.28.2012). In brief, the cells were thawed and resuspended in hepatocyte thawing medium with supplements (Gibco, Cat. CM7000) followed by centrifugation at 100 g for 10 minutes for human and 80 g for 4 minutes for cyno. The supernatant was discarded and the pelleted cells resuspended in hepatocyte plating medium plus supplement pack (Invitrogen, Cat. A1217601 and CM3000). Cells were counted and plated on Bio-coat collagen I coated 96-well plates (ThermoFisher, Cat. 877272) at a density of 33,000 cells/well for human or 60,000 cells/well for cyno (or 65,000 cells/well when assaying effects on TTR protein, described further below). Plated cells were allowed to settle and adhere for 6 or 24 hours in a tissue culture incubator at 37° C. and 5% CO2 atmosphere. After incubation cells were checked for monolayer formation and media was replaced with hepatocyte culture medium with serum-free supplement pack (Invitrogen, Cat. A1217601 and CM4000).
For LNPs prepared using the cross-flow technique, the LNPs were formed by impinging jet mixing of the lipid in ethanol with two volumes of RNA solutions and one volume of water. The lipid in ethanol is mixed through a mixing cross with the two volumes of RNA solution. A fourth stream of water is mixed with the outlet stream of the cross through an inline tee. (See WO2016010840 FIG. 2.) The LNPs were held for 1 hour at room temperature, and further diluted with water (approximately 1:1 v/v). Diluted LNPs were concentrated using tangential flow filtration on a flat sheet cartridge (Sartorius, 100 kD MWCO) and then buffer exchanged by diafiltration into 50 mM Tris, 45 mM NaCl, 5% (w/v) sucrose, pH 7.5 (TSS). Alternatively, the final buffer exchange into TSS was completed with PD-10 desalting columns (GE). If required, formulations were concentrated by centrifugation with Amicon 100 kDa centrifugal filters (Millipore). The resulting mixture was then filtered using a 0.2 μm sterile filter. The final LNP was stored at 4° C. or −80° C. until further use.
(§2) Additional PCR was performed per the manufacturer's protocols (Illumina) to add chemistry for sequencing. The amplicons were sequenced on an Illumina MiSeq instrument. The reads were aligned to a reference genome (e.g., the human reference genome (hg38), the cynomologus reference genome (mf5), the rat reference genome (rn6), or the mouse reference genome (mm10)) after eliminating those having low quality scores. The resulting files containing the reads were mapped to the reference genome (BAM files), where reads that overlapped the target region of interest were selected and the number of wild type reads versus the number of reads which contain an insertion, substitution, or deletion was calculated.
(§3) The editing percentage (e.g., the “editing efficiency” or “percent editing” or “indel frequency”) is defined as the total number of sequence reads with insertions/deletions (“indels”) or substitutions over the total number of sequence reads, including wild type.
Lipid nanoparticle formulations of modified sgRNAs targeting human TTR and the cyno matched sgRNA sequences were tested on primary human hepatocytes and primary cyno hepatocytes in a dose response curve. Primary human and cyno hepatocytes were plated as described in Example 1. Both cell lines were incubated at 37° C., 5% CO2 for 24 hours prior to treatment with LNPs. The LNPs used in the experiments detailed in Tables 20-22 were prepared using the cross-flow procedure described above but purified using PD-10 columns (GE Healthcare Life Sciences) and concentrated using Amicon centrifugal filter units (Millipore Sigma), each containing the specified sgRNA and Cas9 mRNA (SEQ ID NO:1). […] LNPs were incubated in hepatocyte maintenance media containing 6% cyno serum at 37° C., 5% CO2 for 5 minutes. […]

TTR [3] = assay: TTR editing in primary human hepatocytes treated with LNP formulated Spy Cas9 mRNA (SEQ ID NO: 2) and sgRNAs, 12.5 ng mRNA; type: cell-based; settings: for 12.5 ng mRNA, 3.9 nM sgRNA, Avg % Edit: LNP formulated Spy Cas9 mRNA (SEQ ID NO: 2) and sgRNA, 72 hours
Method: as §1
In general, the lipid nanoparticle components were dissolved in 100% ethanol with the lipid component of various molar ratios. The RNA cargos were dissolved in 25 mM citrate, 100 mM NaCl, pH 5.0, resulting in a concentration of RNA cargo of approximately 0.45 mg/mL. The LNPs were formulated with a lipid amine to RNA phosphate (N:P) molar ratio of about 4.5 or about 6, with the ratio of mRNA to gRNA at 1:1 by weight.
The LNPs were formed by microfluidic mixing of the lipid and RNA solutions using a Precision Nanosystems NanoAssemblr™ Benchtop Instrument, according to the manufacturer's protocol. A 2:1 ratio of aqueous to organic solvent was maintained during mixing using differential flow rates. After mixing, the LNPs were collected, diluted in water (approximately 1:1 v/v), held for 1 hour at room temperature, and further diluted with water (approximately 1:1 v/v) before final buffer exchange. The final buffer exchange into 50 mM Tris, 45 mM NaCl, 5% (w/v) sucrose, pH 7.5 (TSS) was completed with PD-10 desalting columns (GE). If required, formulations were concentrated by centrifugation with Amicon 100 kDa centrifugal filters (Millipore). The resulting mixture was then filtered using a 0.2 μm sterile filter. The final LNP was stored at −80° C. until further use.
as §2, §3
Lipid nanoparticle formulations of modified sgRNAs targeting human TTR and the cyno matched sgRNA sequences were tested on primary human hepatocytes and primary cyno hepatocytes in a dose response curve. Primary human and cyno hepatocytes were plated as described in Example 1. Both cell lines were incubated at 37° C., 5% CO2 for 24 hours prior to treatment with LNPs. The LNPs used in the experiments detailed in Tables 18-21 were prepared using the Nanoassemblr™ procedure, each containing the specified sgRNA and Cas9 mRNA (SEQ ID NO:2), each having Lipid. […]

Molecule | # Sites in PHH (off-target integration sites detected) [1] | Max Editing (TTR [2]) [%] | 12.5 ng mRNA, 3.9 nM sgRNA, Avg % Edit (TTR [3]) [%] | dose response curve of % editing (shape) (TTR [3]; LNP formulated Spy Cas9 mRNA and sgRNA, 8 point 2-fold dose response starting at 100 ng mRNA)
G000484: TTR sgRNA modified sequence, Human, SEQ ID NO: 91; guide sequence of CR003367 (nucleic acid) guide: mA*mG*mA*rCrArCrCrArArArUrCrUrUrArCrUrGrGrArGrUrUrUrUrArGrAmGmCmUmAmGmAmAmAmUmAmGmCrArArGrUrUrArArArArUrArArGrGrCrUrArGrUrCrCrGrUrUrArUrCrAmAmCmUmUmGmAmAmAmAmAmGmUmGmGmCmAmCmCmGmAmGmUmCmGmGmUmGmCmU*mU*mU*mU | 0 | 0.22 | 16.67 | 
G000480: TTR sgRNA modified sequence, Human, SEQ ID NO: 87; guide sequence of CR003353 (nucleic acid) guide: mA*mA*mA*rGrGrCrUrGrCrUrGrArUrGrArCrArCrCrUrGrUrUrUrUrArGrAmGmCmUmAmGmAmAmAmUmAmGmCrArArGrUrUrArArArArUrArArGrGrCrUrArGrUrCrCrGrUrUrArUrCrAmAmCmUmUmGmAmAmAmAmAmGmUmGmGmCmAmCmCmGmAmGmUmCmGmGmUmGmCmU*mU*mU*mU | 2 | 20.32 | 59.33 | 
G000499: TTR sgRNA modified sequence, Human, SEQ ID NO: 106; guide sequence of CR005303 (nucleic acid) guide: mU*mG*mA*rArUrCrCrArArGrUrGrUrCrCrUrCrUrGrArGrUrUrUrUrArGrAmGmCmUmAmGmAmAmAmUmAmGmCrArArGrUrUrArArArArUrArArGrGrCrUrArGrUrCrCrGrUrUrArUrCrAmAmCmUmUmGmAmAmAmAmAmGmUmGmGmCmAmCmCmGmAmGmUmCmGmGmUmGmCmU*mU*mU*mU | 1 | 74.94 | 16.07 | 
G000570: TTR sgRNA modified sequence, Human, SEQ ID NO: 111; guide sequence of CR003347 (nucleic acid) guide: mC*mA*mU*rUrGrArUrGrGrCrArGrGrArCrUrGrCrCrUrGrUrUrUrUrArGrAmGmCmUmAmGmAmAmAmUmAmGmCrArArGrUrUrArArArArUrArArGrGrCrUrArGrUrCrCrGrUrUrArUrCrAmAmCmUmUmGmAmAmAmAmAmGmUmGmGmCmAmCmCmGmAmGmUmCmGmGmUmGmCmU*mU*mU*mU | 1 | 96.73 | 88.30 | uncharacteristic dose response curve
G000486: TTR sgRNA modified sequence, Human, SEQ ID NO: 93; guide sequence of CR003339 (nucleic acid) guide: mA*mC*mA*rCrArArArUrArCrCrArGrUrCrCrArGrCrArGrUrUrUrUrArGrAmGmCmUmAmGmAmAmAmUmAmGmCrArArGrUrUrArArArArUrArArGrGrCrUrArGrUrCrCrGrUrUrArUrCrAmAmCmUmUmGmAmAmAmAmAmGmUmGmGmCmAmCmCmGmAmGmUmCmGmGmUmGmCmU*mU*mU*mU | 0 |  | 61.33 | 
